Measurements as given in paper PMC9297724, “SARS-CoV-2 Epitopes following Infection and Vaccination Overlap Known Neutralizing Antibody Sites” (Research, 2022).
Where no end group is shown, it is not given here.

Target: T1, ACE2-Fc (human, UniProt Q9BYF1)
T1 construct: also called recombinant human ACE2; angiotensin converting enzyme-2; source: bought: GenScript
Assay: ELISA; ACE2-Fc (4 ug/mL) captured on goat anti-human IgG Fc coated plates; biotin-labeled S481 peptide in two-fold dilutions 2000-3.90 ng/mL in 1% BSA/0.05% PBST, 1 hour at room temperature; detected with HRP-streptavidin and TMB, absorbance at 450 nm
Conditions: both partners purified

T1 sequence (Q9BYF1 18-740): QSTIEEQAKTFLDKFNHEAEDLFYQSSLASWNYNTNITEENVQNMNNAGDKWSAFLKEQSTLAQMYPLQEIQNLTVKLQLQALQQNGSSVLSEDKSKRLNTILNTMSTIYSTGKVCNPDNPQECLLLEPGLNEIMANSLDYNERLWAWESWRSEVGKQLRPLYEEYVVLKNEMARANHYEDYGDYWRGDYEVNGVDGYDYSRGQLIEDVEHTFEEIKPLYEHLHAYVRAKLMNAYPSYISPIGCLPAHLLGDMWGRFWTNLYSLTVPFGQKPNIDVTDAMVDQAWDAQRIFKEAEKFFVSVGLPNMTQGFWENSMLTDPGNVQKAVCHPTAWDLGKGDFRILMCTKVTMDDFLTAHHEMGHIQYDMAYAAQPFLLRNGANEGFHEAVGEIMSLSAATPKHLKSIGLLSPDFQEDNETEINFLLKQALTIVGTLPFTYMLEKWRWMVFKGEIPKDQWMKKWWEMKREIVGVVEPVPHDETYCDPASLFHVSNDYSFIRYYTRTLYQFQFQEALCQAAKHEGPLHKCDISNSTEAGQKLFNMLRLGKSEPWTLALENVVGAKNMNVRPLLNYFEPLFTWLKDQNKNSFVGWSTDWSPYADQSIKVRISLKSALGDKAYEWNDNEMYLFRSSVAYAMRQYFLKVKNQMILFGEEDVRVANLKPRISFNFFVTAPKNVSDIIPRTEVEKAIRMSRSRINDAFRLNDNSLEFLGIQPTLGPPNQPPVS

Binder: NGVEGFNCYFPLQSY (also: biotin label, position not given here, also called S481 peptide) [S481-495 peptide]
- binding result: binds
